Source: patent publication US20250101098A1 (R P SCHERER TECHNOLOGIES, published 2025)

Columns and labels:
[1] = molecular target: T1, human nectin-4 protein expressed on the surface of cells (human, UniProt Q96NY8 32-510); assay: cell-based or functional assay
T1 sequence: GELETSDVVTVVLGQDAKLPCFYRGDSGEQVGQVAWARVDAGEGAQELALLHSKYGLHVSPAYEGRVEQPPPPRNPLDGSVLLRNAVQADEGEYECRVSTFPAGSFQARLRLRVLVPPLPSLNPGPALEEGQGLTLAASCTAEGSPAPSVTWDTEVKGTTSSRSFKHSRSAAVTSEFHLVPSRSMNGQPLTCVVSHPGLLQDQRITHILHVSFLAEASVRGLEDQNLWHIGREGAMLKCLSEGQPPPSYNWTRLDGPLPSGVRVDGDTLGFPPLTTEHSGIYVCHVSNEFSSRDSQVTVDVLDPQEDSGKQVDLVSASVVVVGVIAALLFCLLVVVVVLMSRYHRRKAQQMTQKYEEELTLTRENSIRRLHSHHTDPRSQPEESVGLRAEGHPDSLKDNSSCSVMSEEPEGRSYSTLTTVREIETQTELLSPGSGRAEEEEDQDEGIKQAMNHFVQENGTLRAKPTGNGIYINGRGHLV

[2] = molecular target: T2, recombinant human Nectin-4-His protein (human, UniProt Q96NY8 32-349); assay: ELISA, recombinant antibody on coated antigen
T2 construct: Rescreening antigen and bought ELISA antigen are treated as one molecule; also called human Nectin-4-His tagged; Ag1; not shown: His tag
T2 sequence: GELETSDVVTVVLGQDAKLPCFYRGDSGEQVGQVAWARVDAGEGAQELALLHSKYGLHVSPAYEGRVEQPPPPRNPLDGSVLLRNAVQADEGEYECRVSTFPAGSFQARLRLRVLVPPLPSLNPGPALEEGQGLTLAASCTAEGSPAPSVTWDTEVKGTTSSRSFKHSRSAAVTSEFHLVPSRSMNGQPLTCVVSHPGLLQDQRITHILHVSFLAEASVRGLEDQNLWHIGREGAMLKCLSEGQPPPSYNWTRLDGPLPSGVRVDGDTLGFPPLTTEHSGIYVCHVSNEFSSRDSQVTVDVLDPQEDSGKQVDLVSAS

[3] = molecular target: T1, human nectin-4 protein expressed on the …; assay: flow cytometry, HEK 293 cells overexpressing the target
Protocol: (§1) Human embryonic kidney (HEK) 293 cells overexpressing human, cynomolgus monkey, rat, or mouse nectin-4 protein were produced. Cells were lifted with Versene to preserve cell surface proteins and were resuspended at 10e6/mL in PBS+2% FBS. 100 μl was added to a flow tube to test […]. Primary antibodies were diluted to […] and 10 μL was added for a total of 1 μg/test. Primary antibodies (or ADCs) were incubated with cells for 1 h on ice. Then, cells were washed 1× in 2 mL PBS+2% FBS and secondary antibody was added for detection. AF488-conjugated anti-human antibody from Jackson Immunoresearch, diluted according to the manufacturer's instructions+50% glycerol, was used at 1 μL/test-diluted to ⅕ the concentration in PBS+2% FBS and 5 μL were added per tube. The secondary reagent was incubated with the cells for 30 min, then cells were washed 2× in PBS+2% FBS and analyzed by flow cytometry on a BD FacsCanto instrument equipped with FACSDiva software.
(§2) Lead clones were tested for binding to human, cynomolgus monkey, rat, or mouse nectin-4 protein expressed on the surface of HEK 293 cells. Enfortumab was included as a positive control and an anti-FITC reactive antibody was included as a negative control.

[4] = molecular target: T3, cynomolgus monkey nectin-4 protein expressed on the surface of HEK 293 cells (cynomolgus monkey, UniProt A0A2K5WES1 32-510); assay: as above
T3 construct: whole, on cells
T3 sequence: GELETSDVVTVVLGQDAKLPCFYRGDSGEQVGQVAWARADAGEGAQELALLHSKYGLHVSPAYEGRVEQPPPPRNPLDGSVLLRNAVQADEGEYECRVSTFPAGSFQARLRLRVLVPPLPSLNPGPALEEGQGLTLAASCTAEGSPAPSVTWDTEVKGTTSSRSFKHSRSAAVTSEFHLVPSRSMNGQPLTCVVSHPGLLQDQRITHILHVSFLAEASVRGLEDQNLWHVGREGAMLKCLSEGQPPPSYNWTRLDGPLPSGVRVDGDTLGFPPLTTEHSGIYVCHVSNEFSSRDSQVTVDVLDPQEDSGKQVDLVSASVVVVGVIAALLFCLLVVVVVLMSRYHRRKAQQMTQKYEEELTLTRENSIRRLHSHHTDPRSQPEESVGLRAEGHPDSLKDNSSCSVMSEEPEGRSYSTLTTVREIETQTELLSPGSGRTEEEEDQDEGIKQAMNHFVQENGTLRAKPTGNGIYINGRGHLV
Protocol: as §1, §2

[5] = molecular target: T2, recombinant human Nectin-4-His protein; assay: ELISA, coated antigen
[6] = molecular target: T1, human nectin-4 protein expressed on the …; assay: cell-based or functional assay; remark: listed apart in the source
[7] = molecular target: T4, cynomolgus Nectin-4 His tagged (cynomolgus, UniProt A0A2K5WES1 32-349); assay: ELISA, hybridoma supernatant
T4 construct: also called Ag2
T4 sequence: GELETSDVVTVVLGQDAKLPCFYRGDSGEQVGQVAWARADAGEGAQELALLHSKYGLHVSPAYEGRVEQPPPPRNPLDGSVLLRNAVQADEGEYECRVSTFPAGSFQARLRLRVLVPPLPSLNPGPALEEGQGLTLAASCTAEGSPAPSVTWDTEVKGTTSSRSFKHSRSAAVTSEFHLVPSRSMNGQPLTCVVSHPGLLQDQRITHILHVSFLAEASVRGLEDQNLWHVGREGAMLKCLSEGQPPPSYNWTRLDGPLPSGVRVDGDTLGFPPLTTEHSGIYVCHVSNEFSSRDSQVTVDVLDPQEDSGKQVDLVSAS

[8] = molecular target: T2, recombinant human Nectin-4-His protein; assay: ELISA, hybridoma supernatant

Binder	EC50 [5]	Cell kill IC50, HekNectin4 [6]	Cell kill IC50, MDA-MB468 [6]	Cell kill IC50, SKBR3 [6]	ELISA signal [7]	ELISA signal [8]	also measured
Nectin-4 7H10H/7H10L (recombinant chimeric antibody) (antibody, V domains shown) VH: QVQLQQPGAELVKPGASVKLSCKASGYTFTTYWMHWVKQRPGRGLEWIGGIDPYGAHIKYNEMFKTKATLTVDKPSSTAYMQLSSLTSEDSAVYYCARGDYSNWWWTYWGQGTLVTVSA VL: DIVMTQSQKFMSTTVGDRVSITCKASQNVGTAVAWYQQIPGQSPKLLIYSASNRYTGVPDRFTGSGSGTDFTLTITNMQSEDLADYFCQHYSSYPWTFGGGTKLEIK							IC50, in vitro potency, HEK Cells + Nectin-4 [1]: 0.549 nM; EC50 [2]: 0.21 nM; Flow data [3]: 12300; Flow data [4]: 14100
Nectin-4 5D9 VH4/VL2 (antibody, V domains shown, Humanized; also called 5D9 VH variant 4 / 5D9 VL variant 2) VH: QVQLQQSGPGLVKPSETLSLTCTVSGFSLTNYGVHWVRQPPGKGLEWLGVIWSGGSTDYNPSLKSRLTISRDTSKNQVSFKMSSVTAADTAVYYCARSGKWYYFDYWGQGTLVTVSS VL: DIQMTQSPSSLSASVGDTVTITCRASQNIYSNLAWYQQKQGKAPKLLVYAATNLADGVPSRFSGSGSGTDFTLKINSLQPEDFATYYCQHFWGTPTFGGGTKVEIK	0.236 nM	0.29 nM	3.13 nM	4.95 nM			
Nectin-4 5D9 VH4/VL4 (antibody, V domains shown, Humanized; also called 5D9 VH variant 4 / 5D9 VL variant 4) VH: QVQLQQSGPGLVKPSETLSLTCTVSGFSLTNYGVHWVRQPPGKGLEWLGVIWSGGSTDYNPSLKSRLTISRDTSKNQVSFKMSSVTAADTAVYYCARSGKWYYFDYWGQGTLVTVSS VL: DIQMTQSPSSLSASVGDRVTITCRASENIYSNLAWYQQKPGKAPKLLVYAATNLADGVPSRFSGSGSGTDYTLTISSLQPEDFATYYCQHFWGTPTFGGGTKVEIK	0.232 nM	0.102 nM	3.37 nM	9.45 nM			
Nectin-4 5D9 VH5/VL1 (antibody, V domains shown, Humanized; also called 5D9 VH variant 5 / 5D9 VL variant 1) VH: QVQLQESGPGLVKPSETLSLTCTVSGGSLTNYGVHWVRQPPGKGLEWIGVIWSGGSTNYNPSLKSRVTISRDTSKNQVSLKLSSVTAADTAVYYCARSGKWYYFDYWGQGTLVTVSS VL: DIQMTQSPASLSASVGDTVTITCRASQNIYSNLAWYQQKQGKSPQLLVYAATNLADGVPSRFSGSGSGTQYTLKINSLQSEDFGTYYCQHFWGTPTFGGGTKVEIK	33.4 nM	30.3 nM	19 nM	13.3 nM			
Nectin-4 12E11H/12E11L (hybridoma supernatant) (antibody, V domains shown, Mouse antibody in hybridoma supernatant) VH: QVQLKQSGPGLVQPSQSLSITCTVSGFSLTTYGVHWVRQSPGKGLEWLGVIWSGGSTDCNGAFISRLSIIKDNSKSQVFFKMNSLQADDTAIYYCARMTHWYFDVWGTGTTVTVSS VL: DIVMTQSQKFMSTTVGDRVSITCKASQNVNTAVAWYQQKPGQSPKLLIYSASYRYTGVPDRFTGSGSGTDFTLTISNMQSEDLADYFCQQYSNYPLTFGAGTKLELK					3.44	3.21	
Nectin-4 3C12H/3C12L (hybridoma supernatant) (antibody, V domains shown, Mouse antibody in hybridoma supernatant) VH: QVQLKQSGPGLVQPSQSLSITCTVSGFSLTTYGVHWVRQSPGKGLEWLGVIWSGGNTDYNAAFISRLSISKDNSKSQVFFKMNSLQADDTAIYYCARMTHWYFDVWGTGTTVTVSS VL: DIVMTQSQKFMSTTVGDRVSITCKASQNVVTAVAWYQQKPGQSPKLLIYSASNRYTGVPDRFTGSGSGTDFTLTISYMQSEDLADYFCQQYSSYPLTFGAGTKLELK					3.45	3.2	
Nectin-4 5D9H/5D9L (hybridoma supernatant) (antibody, V domains shown, Mouse antibody in hybridoma supernatant) VH: QVQLKQSGPGLVQPSQSLSITCTVSGFSLTNYGVHWVRQSPGKGLEWLGVIWSGGSTDYNAAFVSRLSISRDNSKSQVFFKMNSLQADDTAIYYCARSGKWYYFDYWGQGTTLTVSS VL: DIQMTQSPASLSVSVGETVTITCRASENIYSNLAWYQQKQGKSPQLLVYAATNLADGVPSRFSGSGSGTQYSLKINSLQSEDFGSYYCQHFWGTPTFGGGTKLEIK					3.32	3.08	
Nectin-4 Hybridoma 6C8H/6C8L (hybridoma supernatant) (antibody, V domains shown, Mouse antibody in hybridoma supernatant) VH: QVQLKQSGPGLVQPSQSLSITCTVSGFSLSTYGVHWVRQSPGKGLEWLGVIWSGGSTDYNAAFISRLTISKDNSKSQIFFKMNSLQADDTAIYYCARMMSWYFDVWGTGTTVTVSS VL: DIVMTQSQKFMSTSVGDRVSVTCKASQNVVTNVAWYQQKPGQSPKALIYSASYRYSGVPDRFTGSGSGTDFTLTISNVQSEDLAEYFCQQYNSYPLTFGAGTKLELK					3.4	3.16	
Nectin-4 7 E8H/7 E8L (hybridoma supernatant) (antibody, V domains shown, Mouse antibody in hybridoma supernatant) VH: QVQLKQSGPGLVQPSQSLSITCTVSGFSLATYGVHWVRQSPGKGLEWLGVIWSGGSTDYNAAFISRLSISKDNSKSQVFFKMNSLQADDTAIYYCARNSHWYFDVWGTGTTVTVSS VL: DIVMTQSQKFMSTSVGDRVSVTCKASQNVVTNVAWYQQKPGQSPKALIYSASYRYSGVPDRFTGSGSGTDFTLTISHVQSEDLAEYFCHQYNNYPYTFGGGTKLEIK					3.44	3.11	
Nectin-4 7H10H/7H10L (hybridoma supernatant) (antibody, V domains shown, Mouse antibody in hybridoma supernatant) VH: QVQLQQPGAELVKPGASVKLSCKASGYTFTTYWMHWVKQRPGRGLEWIGGIDPYGAHIKYNEMFKTKATLTVDKPSSTAYMQLSSLTSEDSAVYYCARGDYSNWWWTYWGQGTLVTVSA VL: DIVMTQSQKFMSTTVGDRVSITCKASQNVGTAVAWYQQIPGQSPKLLIYSASNRYTGVPDRFTGSGSGTDFTLTITNMQSEDLADYFCQHYSSYPWTFGGGTKLEIK					3.49	3.26	
